{"source": "paper PMC8857470", "about": "“Molecular insights into the maturation of phosphodiesterase 6 by the specialized chaperone complex of HSP90 with AIPL1” (The Journal of Biological Chemistry, 2022)", "target": "full-length human HSP90β (residues 1–724), pET15b construct (human) (UniProt P08238)", "test": "cross-linking + other: mass photometry; DSS (0.5 mM) or glutaraldehyde (0.03%) added to HSP90β (15 μM), AIPL1 (25 μM) or their mixture (HSP90_(AMPPNP)/AIPL1), 15 to 30 min at 25 °C, 25 mM Hepes pH 7.5, 200 mM NaCl, 5% glycerol, 1 mM TCEP; products on 3 to 8% Tris-acetate gel and by mass photometry"}
{"substance": "full-length human HSP90β (residues 1–724), pET15b construct, P08238 1-724 (natural protein; other documents disagree on this pair)", "values": [{"measurement": "stoichiometry N", "value": 2}]}
